The source of these data is PMC6451106.

First the molecules themselves.
B1: SRP72 (natural protein)
chain: MASGGSGGVSVPALWSEVNRYGQNGDFTRALKTVNKILQINKDDVTALHCKVVCLIQNGSFKEALNVINTHTKVLANNSLSFEKAYCEYRLNRIENALKTIESANQQTDKLKELYGQVLYRLERYDECLAVYRDLVRNSQDDYDEERKTNLSAVVAAQSNWEKVVPENLGLQEGTHELCYNTACALIGQGQLNQAMKILQKAEDLCRRSLSEDTDGTEEDPQAELAIIHGQMAYILQLQGRTEEALQLYNQIIKLKPTDVGLLAVIANNIITINKDQNVFDSKKKVKLTNAEGVEFKLSKKQLQAIEFNKALLAMYTNQAEQCRKISASLQSQSPEHLLPVLIQAAQLCREKQHTKAIELLQEFSDQHPENAAEIKLTMAQLKISQGNISKACLILRSIEELKHKPGMVSALVTMYSHEEDIDSAIEVFTQAIQWYQNHQPKSPAHLSLIREAANFKLKYGRKKEAISDLQQLWKQNPKDIHTLAQLISAYSLVDPEKAKALSKHLPSSDSMSLKVDVEALENSAGATYIRKKGGKVTGDSQPKEQGQGDLKKKKKKKKGKLPKNYDPKVTPDPERWLPMRERSYYRGRKKGKKKDQIGKGTQGATAGASSELDASKTVSSPPTSPRPGSAATVSASTSNIIPPRHQKPAGAPATKKKQQQKKKKGGKGGW
B2: SRP68/72 complete heterodimer (complex)
chain 1: MAAEKQVPGGGGGGGSGGGGGSGGGGSGGGRGAGGEENKENERPSAGSKANKEFGDSLSLEILQIIKESQQQHGLRHGDFQRYRGYCSRRQRRLRKTLNFKMGNRHKFTGKKVTEELLTDNRYLLLVLMDAERAWSYAMQLKQEANTEPRKRFHLLSRLRKAVKHAEELERLCESNRVDAKTKLEAQAYTAYLSGMLRFEHQEWKAAIEAFNKCKTIYEKLASAFTEEQAVLYNQRVEEISPNIRYCAYNIGDQSAINELMQMRLRSGGTEGLLAEKLEALITQTRAKQAATMSEVEWRGRTVPVKIDKVRIFLLGLADNEAAIVQAESEETKERLFESMLSECRDAIQVVREELKPDQKQRDYILEGEPGKVSNLQYLHSYLTYIKLSTAIKRNENMAKGLQRALLQQQPEDDSKRSPRPQDLIRLYDIILQNLVELLQLPGLEEDKAFQKEIGLKTLVFKAYRCFFIAQSYVLVKKWSEALVLYDRVLKYANEVNSDAGAFKNSLKDLPDVQELITQVRSEKCSLQAAAILDANDAHQTETSSSQVKDNKPLVERFETFCLDPSLVTKQANLVHFPPGFQPIPCKPLFFDLALNHVAFPPLEDKLEQKTKSGLTGYIKGIFGFRS
chain 2: B1 chain
B3: Ffh from E. coli (natural protein)
chain: MFDNLTDRLSRTLRNISGRGRLTEDNVKDTLREVRMALLEADVALPVVREFINRVKEKAVGHEVNKSLTPGQEFVKIVRNELVAAMGEENQTLNLAAQPPAVVLMAGLQGAGKTTSVGKLGKFLREKHKKKVLVVSADVYRPAAIKQLETLAEQVGVDFFPSDVGQKPVDIVNAALKEAKLKFYDVLLVDTAGRLHVDEAMMDEIKQVHASINPVETLFVVDAMTGQDAANTAKAFNEALPLTGVVLTKVDGDARGGAALSIRHITGKPIKFLGVGEKTEALEPFHPDRIASRILGMGDVLSLIEDIESKVDRAQAEKLASKLKKGDGFDLNDFLEQLRQMKNMGGMASLMGKLPGMGQIPDNVKSQMDDKVLVRMEAIINSMTMKERAKPEIIKGSRKRRIAAGCGMQVQDVNRLLKQFDDMQRMMKKMKKGGMAKMMRSMKGMMPPGFPGR
B4: Chloroplast SRP54 from Arabidopsis thaliana (natural protein)
chain: EMFGQLTGGLEAAWSKLKGEEVLTKDNIAEPMRDIRRALLEADVSLPVVRRFVQSVSDQAVGMGVIRGVKPDQQLVKIVHDELVKLMGGEVSELQFAKSGPTVILLAGLQGVGKTTVCAKLACYLKKQGKSCMLIAGDVYRPAAIDQLVILGEQVGVPVYTAGTDVKPADIAKQGLKEAKKNNVDVVIMDTAGRLQIDKGMMDELKDVKKFLNPTEVLLVVDAMTGQEAAALVTTFNVEIGITGAILTKLDGDSRGGAALSVKEVSGKPIKLVGRGERMEDLEPFYPDRMAGRILGMGDVLSFVEKATEVMRQEDAEDLQKKIMSAKFDFNDFLKQTRAVAKMGSMTRVLGMIPGMGKVSPAQIREAEKNLLVMEAMIEVMTPEERERPELLAESPERRKRIAKDSGKTEQQVSALVAQIFQMRVKMKNLMGVMEGGSIPALSGLEDALKAEQKAPPGTARRKRKADSRKKFVESASSKPGPRGFGSGN

For one test, the target named is rabbit reticulocyte ribosome-nascent chain complexes exposing an SRP-targeting signal (rabbit | not stated). Kind of test: MST.
“entire recombinant SRPS/SR system as measured with RNCs (from UniProt P09132;Q9UHB9;O76094;P61011;P08240;Q9Y5M8) (complex)” came in with a dissociation constant (Kd) below 0.9 nM.

Another test deals with human 80S ribosome (non-translating, Puromycin-treated monosomes) (human (endogenous in HeLa)). The test is described as follows: MST.
Consider SRP54ΔC (domain or fragment), for which the KD1 (two-site fit, PALMIST) is below 100 nM; the KD of the first (high-affinity) binding event was 100 nM; the dissociation constant Kd came to 200 nM.

Molecule “SRPS/SR complex with SRP54 (without signal sequence) (from UniProt P09132;Q9UHB9;O76094;P61011;P08240;Q9Y5M8)” came in with a dissociation constant (Kd) below 1.4 nM.

On to “SRP72-RBD+C (C-terminal region of SRP72 including the RBD) (domain or fragment)”, for which the Kd was found to be 920 nM.

SRP54MΔC (domain or fragment) had a dissociation constant (Kd) of 100 nM.

Consider “complete SRPS (SRP S domain: SRPS RNA, SRP19, SRP68/72 and full-length SRP54) (from UniProt P09132;Q9UHB9;O76094;P61011) (complex)”, for which the Kd was below 4.7 nM.

On to “quaternary SRPS complex with the truncated SRP68/72–RBD constructs (RNA/SRP19/SRP68-RBD/SRP72-RBD in (from UniProt P09132 1-144)”, for which the Kd was 1650 nM.

“SRP68/72ΔC (SRP68/72 heterodimer with the C-terminus of SRP72 truncated) (from UniProt Q9UHB9;O76094) (complex)” came in with a Kd of 420 nM.

SRP54NG (domain or fragment) displayed a Kd of 1650 nM.

For the molecule “SRPS/SR complex with SRP54ss (signal sequence fused to SRP54) (from UniProt P09132;Q9UHB9;O76094;P61011;P08240;Q9Y5M8)”, the dissociation constant (Kd) is below 2 nM.

For “entire human SRP (native 7SL RNA and all six SRP proteins) (from UniProt P49458;P37108;P09132;Q9UHB9;O76094;P61011) (complex)”, the concentration of saturation is below 2.2 nM.

With “SRαΔRBR/SRβ (from UniProt P08240;Q9Y5M8) (complex)”, the Kd is above 7500 nM.

With “complete SRPS with SRP54ΔC (SRPS RNA, SRP19, SRP68/72 and SRP54ΔC) (from UniProt P09132;Q9UHB9;O76094;P61011) (complex)”, the dissociation constant Kd was below 4.7 nM.

“ternary SRPS complex (SRP RNA/SRP19/54) with full-length SRP54 (from UniProt P09132;P61011)”: the Kd was below 4.7 nM and the stoichiometry N was determined as 1.

“SRPS/SR complex with SRP54ΔC (without signal sequence) (from UniProt P09132;Q9UHB9;O76094;P61011;P08240;Q9Y5M8)” returned a dissociation constant Kd below 1.2 nM.

In the case of “SRαβ heterodimer (SRP receptor; full-length SRα with SRβ lacking its N-terminal TMD) (from UniProt P08240;Q9Y5M8) (complex)”, the dissociation constant Kd amounted to 410 nM.

“quaternary SRPS complex with the SRP68/72 heterodimer without the SRP72 C-terminus (RNA/SRP19/SRP68/72ΔC) (from UniProt P09132;Q9UHB9;O76094)” gave a Kd of 370 nM.

Another test has the same target. Kind of test: MST. This is another data set of the same source.
For the molecule B1, the EC50 stood at 520 nM and the Kd turned out to be 820 nM.

The molecule B2 came in with an EC50 of 160 nM.

B3 displayed an equilibrium dissociation constant (Kd) of 2300 nM.

In turn, B4 had an equilibrium dissociation constant (Kd) above 1200 nM.
